According to paper PMC2704394 (2009):

B1: full length S. pombe Pik1, wild type [S. pombe] / purified Cdc4 protein [S. pombe] (parent)
chain 1: MPSSNSGNELLLRFFESAHFTSQLCVAYLSRYPNNIGIHHFLCEKLATFPYEEIEFFIPQLIHLVLNKDSESVALEEFIISQCEQNTQCALITFWYLQAHMVDLGLQPHSSCFKICKRLYNRIQILVFMSSSSLIQSQQKISENVTPALILSGIMLGGVCVPELLKKAGPIAIAQGRKAPRQDPDESDVDVLRRLSTEPRYSLDVLRSSLNNSIVEQHSEVSLRLKAPELTRTHSYQSSATLSIDEQRRVLRSNYFQQEIQFLFALQDISIRLIIVPRQARLSSLRAELALLNNNLPADVNIPLLRSYHKEVSHKIVRIDPKEATILNSAERVPYLIMVEVLSGELSFEPQSKKNKAKVQKIVSHKNQRKRWFDLTDVDPYTNLQDSTDNDISESESEGGDLSMSPLIKGLVPDTLSLSKSFSSFGNVSLQVPSSHRDTDVVLLSGRHSDSDGNGALKRSKIYASEITARMRAAATMLSQLDAEGSRRPKAETERIKNSIILDMQRLEEERLNEPSIYPVSVDISCAEDLRFGKETQKAERKGDRDDPSAATFQEDWYAKKERIRKSSPYGHYPNWDLVSVIVKTGADLRQETFACQLIYAFQRVWLECKEKVWVRRMKILVTGDNSGLIETITNAISVHSIKKNLTKQLREAELAQGKIAGKNVVTLKDYFIKQFGDPNSSRYRQAQTNFLQSLVAYSIISYLLQLKDRHNGNVLIDSEGHIIHIDFGFLLTNTPGNVGFESAPFKLTADYLEILDDRFDEYRSLMKAAFKSVRKNADQIILLVEVMQNNSTMPCFRAGENTSAQLLQRFQLQLGDKECDDFVDLLIQKANCSVWTRLYDLFQNITNGIY
chain 2: MSTDDSPYKQAFSLFDRHGTGRIPKTSIGDLLRACGQNPTLAEITEIESTLPAEVDMEQFLQVLNRPNGFDMPGDPEEFVKGFQVFDKDATGMIGVGELRYVLTSLGEKLSNEEMDELLKGVPVKDGMVNYHDFVQMILAN

Variants of: B1
Experiment: sandwich ELISA
Conditions: with purified Cdc4 protein [S. pombe]; about 7 µg lysate protein; cells grown in the absence of thiamine; Cdc4-coated wells; parent: 0.02; read off a plot

Variant	response
chain 1 D709A	0.083 Absorbance

Same assay, conditions: with purified Cdc4 protein [S. pombe]; about 14 µg lysate protein; cells grown in the absence of thiamine; Cdc4-coated wells; parent: 0.03; read off a plot

Variant	response
chain 1 D709A	0.13 Absorbance

Same assay, conditions: with purified Cdc4 protein [S. pombe]; about 28 µg lysate protein; cells grown in the absence of thiamine; Cdc4-coated wells; parent: 0.073; read off a plot

Variant	response
chain 1 D709A	0.21 Absorbance

Same assay, conditions: with purified Cdc4 protein [S. pombe]; about 56 µg lysate protein (highest point of 2-fold serial dilution); cells grown in the absence of thiamine; Cdc4-coated wells; parent: 0.27; read off a plot

Variant	response
chain 1 D709A	0.57 Absorbance
